For series [1], the system named is HeLa Kyoto. Description: solubility in G1/S (NP-40 vs SDS abundance) (log2 ratio); higher = more soluble. The conditions noted are these: cell cycle stage: G1/S.
The test system of series [2] is HeLa Kyoto. As to the kind of experiment: melting temperature (median over replicates), in situ; higher = more thermally stable.
The test system of series [3] is HeLa Kyoto. As to the kind of experiment: solubility change mitosis vs G1/S (difference of NP-40 vs SDS log2 ratios) (log2 ratio difference); higher = more soluble in mitosis.
Series [4] has as its system HeLa Kyoto. Description: thermal stability score vs G1/S (z-score of summed log2 fold changes over temperatures); higher = more thermally stable than in G1/S.
[5] abbreviates: cell cycle stage: early G1 (4.5 h after nocodazole release).
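Wherever melting temperature (median over replicates), in situ is given: HeLa Kyoto cells synchronized by double thymidine or nocodazole block, proteins quantified by TMT10plex mass spectrometry, three independent biological replicates.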
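Wherever solubility change mitosis vs G1/S (difference of NP-40 vs SDS log2 ratios) is given: synchronized HeLa Kyoto cells (double thymidine block for G1/S, nocodazole release for mitosis), protein amounts in NP-40 versus SDS lysates quantified by mass spectrometry, three biological replicates.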
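Wherever solubility in G1/S (NP-40 vs SDS abundance) is given: HeLa Kyoto cells arrested at G1/S by double thymidine block, proteins quantified by TMT10plex mass spectrometry in mild NP-40 versus SDS extracts, three biological replicates.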
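Wherever thermal stability score vs G1/S (z-score of summed log2 fold changes over temperatures) is given: synchronized HeLa Kyoto cells, proteins quantified by TMT10plex mass spectrometry, three biological replicates, mitosis taken 0.5 h after nocodazole release, G1/S directly after double thymidine block.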

Take “MAAEIHSRPQSSRPVLLSKIEGHQDAVTAALLIPKEDGVITASEDRTIRVWLKRDSGQYWPSIYHTMASPCSAMAYHHDSRRIFVGQDNGAVMEFHVSEDFNKMNFIKTYPAHQNRVSAIIFSLATEWVISTGHDKCVSWMCTRSGNMLGRHFFTSWASCLQYDFDTQYAFVGDYSGQITLLKLEQNTCSVITTLKGHEGSVACLWWDPIQRLLFSGASDNSIIMWDIGGRKGRTLLLQGHHDKVQSLCYLQLTRQLVSCSSDGGIAVWNMDVSREEAPQWLESDSCQKCEQPFFWNIKQMWDTKTLGLRQHHCRKCGQAVCGKCSSKRSSYPVMGFEFQVRVCDSCYDSIKDEDRTSLATFHEGKHNISHMSMDIARGLMVTCGTDRIVKIWDMTPVVGCSLATGFSPH [WDFY1]”: in the series with HeLa Kyoto [1], the “solubility in G1/S (log2)” value is -0.607. Further, the melting temperature in the series on HeLa Kyoto [2] (cell cycle stage: G1/S) stood at 54.2 °C; in the series with HeLa Kyoto [2] (cell cycle stage: mitosis), 54.5 °C. Besides, the “solubility change mitosis (log2)” value with HeLa Kyoto [3] was -0.0745. In addition, the thermal stability score in the series on HeLa Kyoto [4] (setting [5]) was 1.13; in the series on HeLa Kyoto [4] (cell cycle stage: mitosis), -1.04.

On to “MAAERGAGQQQSQEMMEVDRRVESEESGDEEGKKHSSGIVADLSEQSLKDGEERGEEDPEEEHELPVDMETINLDRDAEDVDLNHYRIGKIEGFEVLKKVKTLCLRQNLIKCIENLEELQSLRELDLYDNQIKKIENLEALTELEILDISFNLLRNIEGVDKLTRLKKLFLVNNKISKIENLSNLHQLQMLELGSNRIRAIENIDTLTNLESLFLGKNKITKLQNLDALTNLTVLSMQSNRLTKIEGLQNLVNLRELYLSHNGIEVIEGLENNNKLTMLDIASNRIKKIENISHLTELQEFWMNDNLLESWSDLDELKGARSLETVYLERNPLQKDPQYRRKVMLALPSVRQIDATFVRF [PPP1R7]”, for which the “solubility in G1/S (log2)” value in the series with HeLa Kyoto [1] was found to be 0.332. The melting temperature in the series with HeLa Kyoto [2] (cell cycle stage: G1/S) is 52.7 °C; with HeLa Kyoto [2] (cell cycle stage: mitosis) it was 52.8 °C. Further, the “solubility change mitosis (log2)” value in the series on HeLa Kyoto [3] was found to be 0.033. Further, the thermal stability score is -1.16 in the series with HeLa Kyoto [4] (setting [5]) and -2.37 in the series on HeLa Kyoto [4] (cell cycle stage: mitosis).

With “MAAERQEALREFVAVTGAEEDRARFFLESAGWDLQIALASFYEDGGDEDIVTISQATPSSVSRGTAPSDNRVTSFRDLIHDQDEDEEEEEGQRFYAGGSERSGQQIVGPPRKKSPNELVDDLFKGAKEHGAVAVERVTKSPGETSKPRPFAGGGYRLGAAPEEESAYVAGEKRQHSSQDVHVVLKLWKSGFSLDNGELRSYQDPSNAQFLESIRRGEVPAELRRLAHGGQVNLDMEDHRDEDFVKPKGAFKAFTGEGQKLGSTAPQVLSTSSPAQQAENEAKASSSILIDESEPTTNIQIRLADGGRLVQKFNHSHRISDIRLFIVDARPAMAATSFILMTTFPNKELADESQTLKEANLLNAVIVQRLT [NSFL1C]”, the “solubility in G1/S (log2)” value in the series on HeLa Kyoto [1] stood at 0.384. Further, the melting temperature in the series with HeLa Kyoto [2] (cell cycle stage: G1/S) worked out at 51.7 °C; with HeLa Kyoto [2] (cell cycle stage: mitosis), 52 °C. For the same sequence, the “solubility change mitosis (log2)” value in the series on HeLa Kyoto [3] amounted to 0.0342. In addition, the thermal stability score in the series on HeLa Kyoto [4] (setting [5]) was -1.97; in the series with HeLa Kyoto [4] (cell cycle stage: mitosis), 1.13.

“MAAESALQVVEKLQARLAANPDPKKLLKYLKKLSTLPITVDILAETGVGKTVNSLRKHEHVGSFARDLVAQWKKLVPVERNAEPDEQDFEKSNSRKRPRDALQKEEEMEGDYQETWKATGSRSYSPDHRQKKHRKLSELERPHKVSHGHERRDERKRCHRMSPTYSSDPESSDYGHVQSPPSCTSPHQMYVDHYRSLEEDQEPIVSHQKPGKGHSNAFQDRLGASQERHLGEPHGKGVVSQNKEHKSSHKDKRPVDAKSDEKASVVSREKSHKALSKEENRRPPSGDNAREKPPSSGVKKEKDREGSSLKKKCLPPSEAASDNHLKKPKHRDPEKAKLDKSKQGLDSFDTGKGAGDLLPKVKEKGSNNLKTPEGKVKTNLDRKSLGSLPKVEETDMEDEFEQPTMSFESYLSYDQPRKKKKKIVKTSATALGDKGLKKNDSKSTGKNLDSVQKLPKVNKTKSEKPAGADLAKLRKVPDVLPVLPDLPLPAIQANYRPLPSLELISSFQPKRKAFSSPQEEEEAGFTGRRMNSKMQVYSGSKCAYLPKMMTLHQQCIRVLKNNIDSIFEVGGVPYSVLEPVLERCTPDQLYRIEEYNHVLIEETDQLWKVHCHRDFKEERPEEYESWREMYLRLQDAREQRLRVLTKNIQFAHANKPKGRQAKMAFVNSVAKPPRDVRRRQEKFGTGGAAVPEKIKIKPAPYPMGSSHASASSISFNPSPEEPAYDGPSTSSAHLAPVVSSTVSYDPRKPTVKKIAPMMAKTIKAFKNRFSRR [TCEB3]”: the “solubility in G1/S (log2)” value with HeLa Kyoto [1] was -0.429. In addition, the figures for the melting temperature in the series on HeLa Kyoto [2] (cell cycle stage: G1/S) and in the series with HeLa Kyoto [2] (cell cycle stage: mitosis) were 47.8 °C and 49.2 °C, respectively. Moreover, the “solubility change mitosis (log2)” value in the series with HeLa Kyoto [3] worked out at 0.454. Besides, the thermal stability score in the series on HeLa Kyoto [4] (setting [5]) was 0.335; in the series on HeLa Kyoto [4] (cell cycle stage: mitosis), 1.24.

In the case of “MAAETRNVAGAEAPPPQKRYYRQRAHSNPMADHTLRYPVKPEEMDWSELYPEFFAPLTQNQSHDDPKDKKEKRAQAQVEFADIGCGYGGLLVELSPLFPDTLILGLEIRVKVSDYVQDRIRALRAAPAGGFQNIACLRSNAMKHLPNFFYKGQLTKMFFLFPDPHFKRTKHKWRIISPTLLAEYAYVLRVGGLVYTITDVLELHDWMCTHFEEHPLFERVPLEDLSEDPVVGHLGTSTEEGKKVLRNGGKNFPAIFRRIQDPVLQAVTSQTSLPGH [METTL1]”, in the series with HeLa Kyoto [1], the “solubility in G1/S (log2)” value is 0.231. Further, the melting temperature was 52.4 °C in the series with HeLa Kyoto [2] (cell cycle stage: G1/S) and 54.7 °C in the series with HeLa Kyoto [2] (cell cycle stage: mitosis). Besides, in the series with HeLa Kyoto [3], the “solubility change mitosis (log2)” value is -0.075. Also, the thermal stability score worked out at 0.937 in the series with HeLa Kyoto [4] (setting [5]) and 2.85 with HeLa Kyoto [4] (cell cycle stage: mitosis).

These data come from the supplement of paper PMC5998384.
